Residue numbers refer to the chain shown, from its start. Names may count otherwise.

Results on 24 molecules are retold here after US20240018502A1.

Sequences and labels used below:
B1: MTSP-1 Q38H/I41S/D60bV/F60eQ/Y60gF/ins97aE/F97T/T98G/F99L/C122S/Q175L/Q192I (enzyme)
chain: VVGGTDADEGEWPWQVSLHALGHGHSCGASLISPNWLVSAAHCYIDVRGQRFSDPTQWTAFLGLHDQSQRSAPGVQERRLKRIISHPFFNDTEGLDYDIALLELEKPAEYSSMVRPSLPDASHVFPAGKAIWVTGWGHTQYGGTGALILQKGEIRVINQTTCENLLPQLITPRMMCVGFLSGGVDSCIGDSGGPLSSVEADGRIFQAGVVSWGDGCAQRNKPGVYTRLPLFRDWIKENTGV
B2: MTSP-1 Q38E/I41S/D60bV/F60eK/F97T/ins97aE/T98G/F99L/C122S/Q175L/Q192I (enzyme)
chain: VVGGTDADEGEWPWQVSLHALGEGHSCGASLISPNWLVSAAHCYIDVRGKRYSDPTQWTAFLGLHDQSQRSAPGVQERRLKRIISHPFFNDTEGLDYDIALLELEKPAEYSSMVRPISLPDASHVFPAGKAIWVTGWGHTQYGGTGALILQKGEIRVINQTTCENLLPQLITPRMMCVGFLSGGVDSCIGDSGGPLSSVEADGRIFQAGVVSWGDGCAQRNKPGVYTRLPLFRDWIKENTGV
B3: MTSP-1 Q38H/I41A/D60bE/F60eH/Y60gW/F97T/ins97aE/T98G/F99L/C122S/G151N/Q175L/Q192D (enzyme)
chain: B2 chain with E23H, S26A, V47E, K50H, Y52W, G146N, I189D
B4: MTSP-1 Q38H/I41S/D60bA/F60eV/Y60gF/ins97aE/F97T/T98G/F99L/C122S/G151N/Q175L/Q192T (enzyme)
chain: B2 chain with E23H, V47A, K50V, Y52F, G146N, I189T
B5: MTSP-1 Q38V/I41S/D60bT/F60eT/F97D/ins97aV/T98P/F99L/C122S/G151N/Q175H/Q192S (enzyme)
chain: B2 chain with E23V, V47T, K50T, T92D, E93V, G94P, G146N, L170H, I189S
B6: MTSP-1 Q38R/I41E/ins97aE/F97T/T98G/F99L/C122S/G151N/Q175L/Q192T (enzyme)
chain: B2 chain with E23R, S26E, V47D, K50F, G146N, I189T
B7: MTSP-1 Q38L/I41T/D60bR/F60eL/Y60gM/F97T/ins97aE/T98G/F99L/C122S/G151N/Q175L/Q192G (enzyme)
chain: B2 chain with E23L, S26T, V47R, K50L, Y52M, G146N, I189G
B8: MTSP-1 Q38F/I41S/D60bF/F60eR/Y60gF/F97T/ins97aE/T98G/F99L/C122S/G151N/Q175L/Q192V (enzyme)
chain: B2 chain with E23F, V47F, K50R, Y52F, G146N, I189V
B9: MTSP-1 Q38H/I41A/F60eA/Y60gW/ins97aE/F97T/T98G/F99L/C122S/Q175L/Q192E (enzyme)
chain: B2 chain with E23H, S26A, V47D, K50A, Y52W, I189E
B10: MTSP-1 Q38W/I41A/ins97aV/F97D/T98P/F99L/C122S/G151T/Q175S/Q192D (enzyme)
chain: B2 chain with E23W, S26A, V47D, K50F, T92D, E93V, G94P, G146T, L170S, I189D
B11: MTSP-1 Q38L/I41T/D60bA/F60eL/ins97aV/F97D/T98P/F99L/C122S/G151H/Q175M/Q192T (enzyme)
chain: B2 chain with E23L, S26T, V47A, K50L, T92D, E93V, G94P, G146H, L170M, I189T
B12: MTSP-1 Q38L/I41A/D60bH/F60eT/ins97aV/F97D/T98P/F99L/C122S/G151Q/Q175A/Q192G (enzyme)
chain: B2 chain with E23L, S26A, V47H, K50T, T92D, E93V, G94P, G146Q, L170A, I189G
B13: MTSP-1 Q38H/I41S/D60bT/F60eS/ins97aV/F97D/T98P/F99L/C122S/G151H/Q175A/Q192D (enzyme)
chain: B2 chain with E23H, V47T, K50S, T92D, E93V, G94P, G146H, L170A, I189D
B14: MTSP-1 Q38H/I41A/D60bE/F60eH/Y60gW/ins97aE/F97T/T98G/F99L/C122S/Q175L/Q192D (enzyme)
chain: B2 chain with E23H, S26A, V47E, K50H, Y52W, I189D
B15: MTSP-1 Q38E/I41S/D60bV/F60eK/ins97aE/F97T/T98G/F99L/C122S/G151N/Q175L/Q192I (enzyme)
chain: B2 chain with G146N
B16: MTSP-1 Q38H/I41S/D60bS/F60eR/Y60gW/F97T/ins97aE/T98G/F99L/C122S/Q175L/Q192E (enzyme)
chain: B2 chain with E23H, V47S, K50R, Y52W, I189E
B17: MTSP-1 Q38G/H40R/I41H/D60bH/F60eK/F97T/ins97aE/T98G/F99L/C122S/Q175L/V183A/Q192G (enzyme)
chain: B2 chain with E23G, H25R, S26H, V47H, V178A, I189G
B18: MTSP-1 Q38H/I41S/D60bT/F60eS/F97D/ins97aV/T98P/F99L/C122S/G151H/Q175L/Q192D (enzyme)
chain: B2 chain with E23H, V47T, K50S, T92D, E93V, G94P, G146H, I189D
B19: MTSP-1 Q38R/I41S/D60bY/F60eD/ins97aV/F97D/T98P/F99L/C122S/G151N/Q175M/Q192A (enzyme)
chain: B2 chain with E23R, V47Y, K50D, T92D, E93V, G94P, G146N, L170M, I189A
B20: MTSP-1 Q38R/I41E/ins97aE/F97T/T98G/F99L/C122S/Q175L/Q192T (enzyme)
chain: B2 chain with E23R, S26E, V47D, K50F, I189T
B21: MTSP-1 F97D/ins97aV/T98P/F99L/C122S/G151N/Q175L/Q192E (enzyme)
chain: B2 chain with E23Q, S26I, V47D, K50F, T92D, E93V, G94P, G146N, I189E
B22: MTSP-1 Q38H/I41S/D60bT/F60eT/F97D/ins97aV/T98P/F99L/C122S/G151N/Q175L/Q192V (enzyme)
chain: B2 chain with E23H, V47T, K50T, T92D, E93V, G94P, G146N, I189V
B23: MTSP-1 Q38H/I41A/D60bV/F60eT/Y60gW/ins97aE/F97T/T98G/F99L/C122S/Q175L/Q192E (enzyme)
chain: B2 chain with E23H, S26A, K50T, Y52W, I189E
B24: MTSP-1 Q38H/I41A/D60bV/F60eR/Y60gW/ins97aE/F97T/T98G/F99L/C122S/Q175L/Q192D (enzyme)
chain: B2 chain with E23H, S26A, K50R, Y52W, I189D

plasma purified human complement protein C3 (human), sequence (P01024 23-667, chain 1 of 2): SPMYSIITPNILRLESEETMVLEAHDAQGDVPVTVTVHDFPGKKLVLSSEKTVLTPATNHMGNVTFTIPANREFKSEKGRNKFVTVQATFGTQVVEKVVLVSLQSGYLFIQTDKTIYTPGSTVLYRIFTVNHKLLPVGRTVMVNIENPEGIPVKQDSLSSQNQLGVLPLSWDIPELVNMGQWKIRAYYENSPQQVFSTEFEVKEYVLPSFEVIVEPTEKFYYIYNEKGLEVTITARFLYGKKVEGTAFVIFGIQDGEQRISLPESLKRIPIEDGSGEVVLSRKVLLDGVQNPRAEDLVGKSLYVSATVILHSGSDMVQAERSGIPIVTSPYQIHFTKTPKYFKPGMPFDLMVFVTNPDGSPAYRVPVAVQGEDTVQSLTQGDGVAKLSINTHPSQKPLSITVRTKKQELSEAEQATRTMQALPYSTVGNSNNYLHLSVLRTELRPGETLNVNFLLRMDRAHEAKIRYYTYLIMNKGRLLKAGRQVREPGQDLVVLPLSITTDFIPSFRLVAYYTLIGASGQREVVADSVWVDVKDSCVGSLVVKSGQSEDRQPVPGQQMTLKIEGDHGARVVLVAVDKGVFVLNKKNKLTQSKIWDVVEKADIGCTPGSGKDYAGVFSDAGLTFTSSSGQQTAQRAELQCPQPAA
plasma purified human complement protein C3 (human), sequence (P01024 672-1663, chain 2 of 2): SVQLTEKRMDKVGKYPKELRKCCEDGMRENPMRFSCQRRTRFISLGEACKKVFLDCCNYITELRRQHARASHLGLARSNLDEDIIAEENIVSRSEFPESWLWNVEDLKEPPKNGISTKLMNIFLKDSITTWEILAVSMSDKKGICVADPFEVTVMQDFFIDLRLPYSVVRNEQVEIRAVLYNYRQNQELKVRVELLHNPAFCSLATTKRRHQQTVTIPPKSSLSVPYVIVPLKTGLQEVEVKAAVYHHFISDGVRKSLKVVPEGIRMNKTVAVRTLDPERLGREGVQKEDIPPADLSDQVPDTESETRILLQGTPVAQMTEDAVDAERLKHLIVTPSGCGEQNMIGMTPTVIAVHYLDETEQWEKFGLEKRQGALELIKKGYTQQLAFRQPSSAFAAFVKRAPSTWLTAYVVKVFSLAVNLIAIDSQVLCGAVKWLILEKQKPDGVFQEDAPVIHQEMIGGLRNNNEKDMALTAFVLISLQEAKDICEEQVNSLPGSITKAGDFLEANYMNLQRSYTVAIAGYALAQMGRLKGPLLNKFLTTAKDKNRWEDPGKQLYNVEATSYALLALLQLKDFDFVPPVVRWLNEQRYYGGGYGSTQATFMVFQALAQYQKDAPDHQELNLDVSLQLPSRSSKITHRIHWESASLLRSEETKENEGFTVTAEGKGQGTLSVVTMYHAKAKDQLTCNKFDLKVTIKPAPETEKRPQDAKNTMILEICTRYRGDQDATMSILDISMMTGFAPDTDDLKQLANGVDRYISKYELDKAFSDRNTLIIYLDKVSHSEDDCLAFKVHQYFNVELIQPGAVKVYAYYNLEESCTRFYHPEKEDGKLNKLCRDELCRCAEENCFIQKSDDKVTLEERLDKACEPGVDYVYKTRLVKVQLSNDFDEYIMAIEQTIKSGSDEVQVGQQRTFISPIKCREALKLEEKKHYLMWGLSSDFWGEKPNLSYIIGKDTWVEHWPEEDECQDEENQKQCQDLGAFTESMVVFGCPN

This assay addresses plasma purified human complement protein C3 (human) (UniProt P01024). Description: cell-based or functional assay.
B1 had an EC50 of hC3 cleavage of 5.95 nM.

B2: the EC50 of hC3 cleavage was 20.4 nM.

For B3, the EC50 of hC3 cleavage was 8.28 nM.

B4 yielded an EC50 of hC3 cleavage of 14.2 nM.

In the case of B5, the EC50 of hC3 cleavage came to 18.5 nM.

B6 registered an EC50 of hC3 cleavage of 105 nM.

As to B7, the EC50 of hC3 cleavage came to 23.7 nM.

On to B8, for which the EC50 of hC3 cleavage was 1.96 nM.

B9 had an EC50 of hC3 cleavage of 5.93 nM.

The molecule B10 returned an EC50 of hC3 cleavage of 68 nM.

B11 gave an EC50 of hC3 cleavage of 20.2 nM.

In the case of B12, the EC50 of hC3 cleavage came to 5.73 nM.

Take B13: the EC50 of hC3 cleavage is 67.8 nM.

The molecule B14 returned an EC50 of hC3 cleavage of 5.38 nM.

B15: the EC50 of hC3 cleavage was determined as 19.1 nM.

Consider B16, for which the EC50 of hC3 cleavage is 8.35 nM.

In the case of B17, the EC50 of hC3 cleavage was 27.7 nM.

The molecule B18 showed an EC50 of hC3 cleavage of 45.4 nM.

As for B19, the EC50 of hC3 cleavage amounted to 3.22 nM.

B20 showed an EC50 of hC3 cleavage of 63.3 nM.

In the case of B21, the EC50 of hC3 cleavage stood at 194 nM.

B22: the EC50 of hC3 cleavage worked out at 5.08 nM.

Take B23: the EC50 of hC3 cleavage worked out at 1.39 nM.

The molecule B24 registered an EC50 of hC3 cleavage of 2.37 nM.
